From patent publication US20040102610A1 (Genentech, published 2004)

Assays:
[1] = molecular target: T1, GST-hSu(fu) (UniProt Q9UMX1)
T1 sequence: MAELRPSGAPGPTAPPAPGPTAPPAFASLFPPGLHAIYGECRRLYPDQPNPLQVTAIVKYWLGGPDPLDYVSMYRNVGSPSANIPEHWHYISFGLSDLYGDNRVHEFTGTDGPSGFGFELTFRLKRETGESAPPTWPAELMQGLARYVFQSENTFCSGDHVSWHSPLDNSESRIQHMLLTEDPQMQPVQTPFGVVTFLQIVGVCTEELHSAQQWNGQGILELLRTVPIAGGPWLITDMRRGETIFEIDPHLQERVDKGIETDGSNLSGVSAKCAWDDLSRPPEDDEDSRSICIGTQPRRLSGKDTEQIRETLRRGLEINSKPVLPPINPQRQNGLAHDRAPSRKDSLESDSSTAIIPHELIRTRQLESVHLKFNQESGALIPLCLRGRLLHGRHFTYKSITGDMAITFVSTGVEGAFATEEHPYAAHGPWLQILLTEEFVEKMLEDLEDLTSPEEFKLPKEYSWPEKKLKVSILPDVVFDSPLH

[2] = molecular target: T2, hfused C-Flag (human, UniProt Q9NRP7 1-1315); assay: 293 cells, anti-Myc or anti-Flag IP, immunoblot
T2 construct: also called human fused C-Flag
T2 sequence: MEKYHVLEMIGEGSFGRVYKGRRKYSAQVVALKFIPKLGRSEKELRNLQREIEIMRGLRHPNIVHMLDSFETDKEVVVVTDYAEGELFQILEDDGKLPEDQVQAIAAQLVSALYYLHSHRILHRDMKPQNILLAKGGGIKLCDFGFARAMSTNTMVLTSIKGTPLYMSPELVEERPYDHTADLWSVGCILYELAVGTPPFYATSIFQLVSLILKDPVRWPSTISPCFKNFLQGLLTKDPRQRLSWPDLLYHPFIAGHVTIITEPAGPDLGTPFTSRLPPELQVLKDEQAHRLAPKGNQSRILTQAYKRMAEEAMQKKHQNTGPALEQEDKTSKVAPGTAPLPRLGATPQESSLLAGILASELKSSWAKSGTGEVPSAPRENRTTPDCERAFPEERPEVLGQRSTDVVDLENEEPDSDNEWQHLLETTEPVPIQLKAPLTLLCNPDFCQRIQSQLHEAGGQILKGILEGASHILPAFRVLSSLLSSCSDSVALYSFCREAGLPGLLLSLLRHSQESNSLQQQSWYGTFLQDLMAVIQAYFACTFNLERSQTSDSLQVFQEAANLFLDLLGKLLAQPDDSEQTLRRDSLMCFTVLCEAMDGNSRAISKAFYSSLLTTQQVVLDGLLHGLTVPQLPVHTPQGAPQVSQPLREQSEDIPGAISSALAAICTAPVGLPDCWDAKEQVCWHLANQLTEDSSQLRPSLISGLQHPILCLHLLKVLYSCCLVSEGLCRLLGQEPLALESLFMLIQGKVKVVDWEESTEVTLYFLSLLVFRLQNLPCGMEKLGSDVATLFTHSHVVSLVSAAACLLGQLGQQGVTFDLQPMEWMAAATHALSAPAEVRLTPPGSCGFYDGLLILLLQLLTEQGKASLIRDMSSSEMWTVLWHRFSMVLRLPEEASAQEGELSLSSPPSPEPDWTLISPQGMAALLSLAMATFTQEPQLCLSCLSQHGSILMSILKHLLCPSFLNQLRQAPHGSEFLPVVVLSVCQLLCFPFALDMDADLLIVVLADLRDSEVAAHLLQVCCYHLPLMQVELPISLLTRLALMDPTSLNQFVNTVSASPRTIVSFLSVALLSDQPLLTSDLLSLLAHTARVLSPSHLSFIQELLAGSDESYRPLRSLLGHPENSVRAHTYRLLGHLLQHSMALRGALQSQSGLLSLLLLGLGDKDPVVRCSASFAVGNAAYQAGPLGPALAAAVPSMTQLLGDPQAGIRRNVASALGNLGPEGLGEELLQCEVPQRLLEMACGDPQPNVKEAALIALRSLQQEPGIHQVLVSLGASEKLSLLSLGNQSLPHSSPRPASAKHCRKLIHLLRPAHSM
Description: (§1) FIG. 14 describes the biochemical interaction of hFu, hSu(fu) and hGli-1. FIG. 14(A) depicts the interaction of hFu with hSu(fu) in mammalian cells. 293 cells were transfected with hfused and hSu(fu) C-Flag or hfused C-Flag and hSu(fu) C-Myc either alone or in combination. Cell lysates were subjected to anti-Flag immunoprecipitation, and co-precipitating proteins were detected by immunoblotting. FIG. 14(B) depicts the interaction of hfused with hGli-1 in mammalian cells. 293 cells were transfected with hfused C-Flag or N-Myc hGli-1 both alone or in combination, and immunoprecipitated with anti-Myc or anti-Flag antibodies. Proteins were detected by immunoblotting. […] 293 cells were transfected with N-Myc hGli-1, hSu(fu) C-Flag and increasing amounts of hfused. The amount of hfused and hSu(fu) bound to hGli-1 was determined by anti-Myc immunoprecipitation and immunoblotting. Protein expression was analyzed by immunoblotting aliquots of total cell lysates (bottom panel).
(§2) For immunoprecipitation experiments human embryonic kidney 293 cells or C3H10T1/2 cells (ATCC 226-CCL) were transiently transfected with the various expression plasmids in 10 cm plates with lipofectamine (Gibco […]). For every transfection, the total amount of DNA was normalized with an expression plasmid encoding EGFP. […]

[3] = molecular target: T3, human fused (human, UniProt Q9NRP7 1-1315); assay: FIG. 14C: 293 cells transfected with N-Myc hGli-1, hSu(fu) C-Flag and increasing amounts of hfused
T3 construct: The same id is used for endogenous human fused of 293 cells in the GST-hSu(fu) pull-down; also called hfused; hFu
T3 sequence: T2 sequence
Description: as §1, §2

purified PKAc (Upstate biotechnology)
in vitro kinase assay with [γ-32P]ATP [1]: when tested in vitro, GST-hSu(fu) was highly phosphorylated by purified PKAc

B1: N-Myc hGli-1 (other, human, UniProt P08151 1-1106, looked up, not shown: small tags and cut ends)
chain: MFNSMTPPPISSYGEPCCLRPLPSQGAPSVGTEGLSGPPFCHQANLMSGPHSYGPARETNSCTEGPLFSSPRSAVKLTKKRALSISPLSDASLDLQTVIRTSPSSLVAFINSRCTSPGGSYGHLSIGTMSPSLGFPAQMNHQKGPSPSFGVQPCGPHDSARGGMIPHPQSRGPFPTCQLKSELDMLVGKCREEPLEGDMSSPNSTGIQDPLLGMLDGREDLEREEKREPESVYETDCRWDGCSQEFDSQEQLVHHINSEHIHGERKEFVCHWGGCSRELRPFKAQYMLVVHMRRHTGEKPHKCTFEGCRKSYSRLENLKTHLRSHTGEKPYMCEHEGCSKAFSNASDRAKHQNRTHSNEKPYVCKLPGCTKRYTDPSSLRKHVKTVHGPDAHVTKRHRGDGPLPRAPSISTVEPKREREGGPIREESRLTVPEGAMKPQPSPGAQSSCSSDHSPAGSAANTDSGVEMTGNAGGSTEDLSSLDEGPCIAGTGLSTLRRLENLRLDQLHQLRPIGTRGLKLPSLSHTGTTVSRRVGPPVSLERRSSSSSSISSAYTVSRRSSLASPFPPGSPPENGASSLPGLMPAQHYLLRARYASARGGGTSPTAASSLDRIGGLPMPPWRSRAEYPGYNPNAGVTRRASDPAQAADRPAPARVQRFKSLGCVHTPPTVAGGGQNFDPYLPTSVYSPQPPSITENAAMDARGLQEEPEVGTSMVGSGLNPYMDFPPTDTLGYGGPEGAAAEPYGARGPGSLPLGPGPPTNYGPNPCPQQASYPDPTQETWGEFPSHSGLYPGPKALGGTYSQCPRLEHYGQVQVKPEQGCPVGSDSTGLAPCLNAHPSEGPPHPQPLFSHYPQPSPPQYLQSGPYTQPPPDYLPSEPRPCLDFDSPTHSTGQLKAQLVCNYVQSQQELLWEGGGREDAPAQEPSYQSPKFLGGSQVSPSRAKAPVNTYGPGFGPNLPNHKSGSYPTPSPCHENFVVGANRASHRAAAPPRLLPPLPTCYGPLKVGGTNPSCGHPEVGRLGGGPALYPPPEGQVCNPLDSLDLDNTQLDFVAILDEPQGLSPPPSHDQRGSSGHTPPPSGPPNMAVGNMSVLLRSLPGETEFLNSSA
notes: Expressed in C3H10T1/2 or 293 cells; also called human Gli-1
binding result [2]: binds
binding result [3]: binds
